The values that follow come from US20250361296A1 (BIOCYTOGEN PHARMACEUTICALS BEIJING, published 2025).

The target in test [1] is T1, human SIGLEC15 on CHO-S-hSIGLEC15 cells (human, UniProt Q6ZMC9 20-328).
T1 sequence: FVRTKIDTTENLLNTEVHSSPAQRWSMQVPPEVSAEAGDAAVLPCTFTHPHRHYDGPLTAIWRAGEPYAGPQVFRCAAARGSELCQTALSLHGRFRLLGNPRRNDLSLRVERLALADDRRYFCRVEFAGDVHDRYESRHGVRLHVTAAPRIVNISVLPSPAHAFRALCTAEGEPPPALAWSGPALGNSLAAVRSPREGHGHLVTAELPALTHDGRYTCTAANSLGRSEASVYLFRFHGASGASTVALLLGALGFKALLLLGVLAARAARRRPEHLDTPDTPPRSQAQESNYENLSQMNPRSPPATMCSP
The test can be described thus: flow cytometry (MFI) on CHO-S-hSIGLEC15 cells; antibody sample: freeze 10. The method, then: (§1) In the activity detection experiment, 30 μL of CHO-S-hSIGLEC15 cells were added to the culture plate, and the antibody to be tested was added in a gradient dilution ([…]), and incubated at 4° C. for 30 min. The plate was washed with PBS, and diluted secondary antibody Anti-hIgG-Fc-Alex Flour 647 (RL1-H) (1:2000) was added, incubated at 4° C. for 30 min. The plate was washed once with PBS and the cells were resuspended for flow cytometry detection. MFI value was derived by FlowJo 7.6.1 analysis to calculate EC50.

Test [2] concerns the target T1, human SIGLEC15 on CHO-S-hSIGLEC15 cells. The test can be described thus: flow cytometry (MFI) on CHO-S-hSIGLEC15 cells; antibody sample: 25° C. 7 d. As to the method: as §1
For test [3] the target is unchanged. The test can be described thus: flow cytometry (MFI) on CHO-S-hSIGLEC15 cells; antibody sample: 0 d. The method, then:
as §1

Test [4] has the same target. The test can be described thus: flow cytometry (MFI) on CHO-S-hSIGLEC15 cells; antibody sample: 4° C. 7 d. The method, then: as §1
Test [5] has the same target. The test can be described thus: flow cytometry (MFI) on CHO-S-hSIGLEC15 cells; antibody sample: pH 3.5 6 h. As to the method: as §1
Test [6] has the same target. The test can be described thus: flow cytometry (MFI) on CHO-S-hSIGLEC15 cells; antibody sample: pH 3.5 0 h. The method, then: as §1
Test [7] has the same target. The test can be described thus: flow cytometry (MFI) on CHO-S-hSIGLEC15 cells; antibody sample: freeze 1. The method, then: as §1
Test [8] has the same target. The test can be described thus: flow cytometry (MFI) on CHO-S-hSIGLEC15 cells; antibody sample: 40° C. 7 d. As to the method: as §1

B1: one-armed anti-SIGLEC15 antibody 10C9-S, human IgG1-N297A (antibody)
heavy: not shown
chain: DKTHTCPPCPAPELLGGPSVFLFPPKPKDTLMISRTPEVTCVVVDVSHEDPEVKFNWYVDGVEVHNAKTKPREEQYASTYRVVSVLTVLHQDWLNGKEYKCKVSNKALPAPIEKTISKAKGQPREPQVCTLPPSREEMTKNQVSLSCAVKGFYPSDIAVEWESNGQPENNYKTTPPVLDSDGSFFLVSKLTVDKSRWQQGNVFSCSVMHEALHNHYTQKSLSLSPGK
light: DIQLTQSPLSSPVTLGQPASISCRSSQSLVNSDGETFLSWLQQRPGQPPRLLIYKISNRFSGVPDRFSGSGAGTDFTLKISRVEAEDVGVYYCMQATQFPHTFGQGTKLEIKRTVAAPSVFIFPPSDEQLKSGTASVVCLLNNFYPREAKVQWKVDNALQSGNSQESVTEQDSKDSTYSLSSTLTLSKADYEKHKVYACEVTHQGLSSPVTKSFNRGEC
notes: One-armed format; It has a full-length heavy chain with the knob (T366W), a single Fc fragment with the hole mutations (T366S, L368A, Y407V), and a full-length light chain
For B1, the concentration giving a half-maximal response (EC50) in test [1] was found to be 1.67 µg/mL; in test [2], 1.64 µg/mL; in test [3], 1.79 µg/mL; in test [4], 1.63 µg/mL; in test [5], 2.05 µg/mL; in test [6], 1.66 µg/mL. Moreover, the EC50 in test [7] was 1.46 µg/mL; in test [8] it was 1.55 µg/mL.
